{"source": "ChEMBL document CHEMBL2074511", "about": "“Molecular cloning and pharmacological characterization of rat multidrug resistance protein 1 (mrp1)” (Drug Metab Dispos, 2003)", "substrate": "CCCCC/C=C\\C\\C=C/C=C/C=C/[C@@H](SC[C@@H](NC(=O)CC[C@H](N)C(=O)O)C(=O)NCC(=O)O)[C@@H](O)CCCC(=O)O", "test": "cells, lysate or membranes named"}
{"protein": "Multidrug resistance-associated protein 1 (Mus musculus) (protein) MALRSFCSADGSDPLWDWNVTWHTSNPDFTKCFQNTVLTWVPCFYLWSCFPLYFFYLSRHDRGYIQMTHLNKTKTALGFFLWIICWADLFYSFWERSQGVLRAPVLLVSPTLLGITMLLATFLIQLERRKGVQSSGIMLTFWLVALLCALAILRSKIISALKKDAHVDVFRDSTFYLYFTLVLVQLVLSCFSDCSPLFSETVHDRNPCPESSASFLSRITFWWITGMMVHGYRQPLESSDLWSLNKEDTSEEVVPVLVNNWKKECDKSRKQPVRIVYAPPKDPSKPKGSSQLDVNEEVEALIVKSPHKDREPSLFKVLYKTFGPYFLMSFLYKALHDLMMFAGPKILELIINFVNDREAPDWQGYFYTALLFVSACLQTLALHQYFHICFVSGMRIKTAVVGAVYRKALLITNAARKSSTVGEIVNLMSVDAQRFMDLATYINMIWSAPLQVILALYFLWLSLGPSVLAGVAVMILMVPLNAVMAMKTKTYQVAHMKSKDNRIKLMNEILNGIKVLKLYAWELAFQDKVMSIRQEELKVLKKSAYLAAVGTFTWVCTPFLVALSTFAVFVTVDERNILDAKKAFVSLALFNILRFPLNILPMVISSIVQASVSLKRLRIFLSHEELEPDSIERRSIKSGEGNSITVKNATFTWARGEPPTLNGITFSIPEGALVAVVGQVGCGKSSLLSALLAEMDKVEGHVTLKGSVAYVPQQAWIQNDSLRENILFGHPLQENYYKAVMEACALLPDLEILPSGDRTEIGEKGVNLSGGQKQRVSLARAVYSNSDIYLFDDPLSAVDAHVGKHIFEKVVGPMGLLKNKTRILVTHGISYLPQVDVIIVMSGGKISEMGSYQELLDRDGAFAEFLRTYANAEQDLASEDDSVSGSGKESKPVENGMLVTDTVGKHLQRHLSNSSSHSGDTSQQHSSIAELQKAGAKEETWKLMEADKAQTGQVQLSVYWNYMKAIGLFITFLSIFLFLCNHVSALASNYWLSLWTDDPPVVNGTQANRNFRLSVYGALGILQGAAIFGYSMAVSIGGIFASRRLHLDLLYNVLRSPMSFFERTPSGNLVNRFSKELDTVDSMIPQVIKMFMGSLFSVIGAVIIILLATPIAAVIIPPLGLVYFFVQRFYVASSRQLKRLESVSRSPVYSHFNETLLGVSVIRAFEEQERFIHQSDLKVDENQKAYYPSIVANRWLAVRLECVGNCIVLFAALFAVISRHSLSAGLVGLSVSYSLQITAYLNWLVRMSSEMETNIVAVERLKEYSETEKEAPWQIQETAPPSTWPHSGRVEFRDYCLRYREDLDLVLKHINVTIEGGEKVGIVGRTGAGKSSLTLGLFRINESAEGEIIIDGVNIAKIGLHNLRFKITIIPQDPVLFSGSLRMNLDPFSQYSDEEVWMALELAHLKGFVSALPDKLNHECAEGGENLSVGQRQLVCLARALLRKTKILVLDEATAAVDLETDNLIQSTIRTQFEDCTVLTIAHRLNTIMDYTRVIVLDKGEVRECGAPSELLQQRGIFYSMAKDAGLV", "values": [{"measurement": "Km", "value": 0.05, "unit": "µM"}]}
